Test results reported in the DeepSol protein solubility set.

Test: soluble on expression in E. coli; label from the status in PepcDB or PDB records

For “MAHHHHHHMWLNDFFAMELDGRAAMDANWGVLLAAFFRGPKKYIRDAGVLGEMQASDRYKMMERAVRDEMDMEEDVSRLYNNGMYELLRWLVATAEVTASAHEVTKSFLDAAAEEARNPTTTSAPRYLEGCYESVYNARWNHVVEVPGGEGTGLEVREGEPPQSWTYRAVGRTLEKDDGVQQFGATRPVLMVLTSDKGWPYSRNTIQDLPKDVFVNCEVDRVWQIVKGDLTAWFSTDGGTDFRPERRVLIGTPGIGKLVAAGSYLLYQLLHYDLEKIQVVVHCFGGGDAYVSDKTTRAATRYGDEDMCISELRSLRGHGRNVYIIYDVAKEGTPPPRHFAPTSGWGMIAVSFPKVTNYDEWAKQLQAARIIVNCPD”, which “soluble on expression in E. coli” value is on record?
Its value is “not soluble”.

Which “soluble on expression in E. coli” value does the source give for “MAHHHHHHMYGGNNLRKFIPLVDIPLLGNKNNLLIFCGKVNFGSKKQKEKVDKETKKFRKFLKISNMKNNDEDEKYEGDINEGDMKKKMKGISGMTRIDYKIYDIKIQEINKNFENKIKKIFDTCLQIDFFNNISILKDKKNIKLCDVAQVVIKSSNLIYFYPYTINDIQKIIHNLKLKDNTWNPTVSNDGQYVILQIQPLSEDVKMKKKKEAKDLFEKIKNDIRNVRYKIRDDIIKNIEGDQWKIVERNKLDNYIKDKMKLIENVYEQSVKNY” here?
Its value is “not soluble”.

With “MAHHHHHHMYGPSFSQTVLVAATPVVMKSPPTFFKGGNFRRISRRSTLKTTPERVPRNMYQFIVGSPSGELGHHSMDVMVSVQETVIDSGITQMCCSMLKNRRRRSLWRVTYVFGNSGDTLYNCRALSIDGLARRSMRPSPVPPDKLLSSAALIPFSVPRDFFIVFN” as the sequence, how does the “soluble on expression in E. coli” value read?
The value was “not soluble”.

For “MAHHHHHHMYTRLTELFFISHTFRGRMSSTFCLQPSMMRPLLEQQRRFTSIISRFSSTVTSHVSSLADTHFMPLSEQCITEPRRPYPRRVSMQENLAERLTLQRSLRAHLVPLQVIVSKEKLYIELVWPSAALRAVENQKETMAHTVKGAAADGDDDGNDAALHHAMESPARTVSSGLSQRRPLEEHRTRFLAEFLRAYSPSTDVIGSDVLIYGRRGITITDVIPVGNYALRIVFSDGHSGGIYPYEYLFHLGCEKYSRMREYIRRLRAKHKSRDPPKRAPSQRLSRSRSAQRAEGRHMNSHGQDDQ”, which “soluble on expression in E. coli” value is on record?
The value was “not soluble”.

For “MAHHHHHHSLAPLISVLDLTPVSTGQQPGEALRHTLELAEVADSYQYTRFWIAEHHNSGAFVSAATEILIALAAARTGRIRVGSGGVMLPNHSPLKVAENFMSLEALFPGRIDLGLGRAPGTDGRTALALRRSREALAADDFPTQIALLRAFAGETPWPAGSVFDGVLAEPRGVKLPPLWILGSSLYGAQLAGELGVGYAFAYHFSQEDPAVAVQTYHRHFRPGPLAEPYAILGVNALAAPTEDEARDLSLTSAALSLGILSGQRGVLRSPEEARQWLQEMDTDPAKLLKKARIGTPEQVWASLQELGESTGAQEMLVTTYAHDPLKRQQSYRLLAQAAGMTPQKEEG”, which “soluble on expression in E. coli” value is on record?
Its value is “soluble”.

With “MAHHHHHHSLKTKIIVIVGPTAVGKTALAIEVAKRFNGEVVSGDSQQVYRGLDIGTAKASPEEQAAVPHHLIDVREITESYSAFDFVSEAKMTIEDIHSRGKLAIIAGGTGLYIQSLLEGYHLGGETPHEEILAYRASLEPYSDEELAHLVEQAGLEIPQFNRRRAMRALEIAHFGQDLENQEILYEPLIICLDDERSQLYERINHRVDLMFEAGLLDEAKWLFDHSPNVQAAKGIGYKELFPYFRGEQTFEEARESLKQATRRFAKRQLTWFRNRMQVTFYQIGESGVQDRILSQIEEFLDDEG” as the sequence, how does the “soluble on expression in E. coli” value read?
Its value is “not soluble”.

With “MAHHHHHHSLNDIVEVEIVDLTHEGAGVAKVDGLVFFVENALPSEKILMRVLKVNKKIGFGKVEKYLVQSPHRNQDLDLAYLRSGIADLGHLSYPEQLKFKTKQVKDSLYKIAGIADVEVAETLGMEHPVKYRNKAQVPVRRVNGVLETGFFRKNSHNLMPLEDFFIQDPVIDQVVVALRDLLRRFDLKPYDEKEQSGLIRNLVVRRGHYSGQIMVVLVTTRPKVFRVDQLIEQVIKQFPEIVSVMQNINDQNTNAIFGKEWRTLYGQDYITDQMLGNDFQIAGLAFYQVNTEMAEKLYQTAIDFAELKKDDVVIDAYSGIGTIGLSVAKHVKEVYGVELIPEAVENSKKNAQLNNISNAHYVCDTAENAMKNWLKDGIQPTVILVDPPRKGLTESFIKASAQTGADRIAYISCNVATMARDIKLYQELGYELKKVQPVDLFPQTHHVETVALLSKLDVDKHISVEIELDEMDLTSAESKATYAQIKEYVWNKFELKVSTLYIAQIKKKCGIELREHYNKSKKDKQIIPQCTPEKEEAIMDALRHFKMIEG” as the sequence, how does the “soluble on expression in E. coli” value read?
Its value is “soluble”.

Which “soluble on expression in E. coli” value does the source give for “MAHHHHHHSLSLKGFVKVERRMADRTIKMLQSRGYFDSDYEIRHEGDYVLIPVKDGFTGPVVVKDAEKKPKVIPASGSFDIIGTIAITKKDDVEFAKEILKTHKNIKSVYLDKGVKGKERIRDLVLLAGIDSTVALYRENGCIFKIDVSKSYFSPRLATERRRLVDSILDGEFIVDMFAGSGPISIEVAKKRRVKIISIDINCAAIESLQESMRLNSLLGTITPICGDARQLIKDIHDADRIIMNHPTDAFSFLPCALEALKYGGHINYYEILNKDDVTKRLADFNFMRLKVFSYHRVHSYSKLSDLISFDLIREGEG” here?
Its value is “soluble”.

Which “soluble on expression in E. coli” value does the source give for “MAHHHHHHVDDDDKMAGDSAAYQRTSLYGDDVVIVAAHRTPLCKSKRGNFKDTYPDDLLAPVLRALIEKTNLNPSEVGDIVVGTVLAPGSQRASECRMAAFYAGFPETVAVRTVNRQCSSGLQAVADVAAAIKAGFYDIGIGAGLESMTTNPMAWEGSVNPAVKKFAQAQNCLLPMGVTSENVAQRFGVSRQEQDQAAVDSHRKAAAATAAGKFKDEIIPVKTKLVDPKTGDEKPITVSVDDGIRPTTTLASLGKLKPVFKKDGTTTAGNSSQVSDGAGAVLLMKRSVAMQKGLPVLGVFRTFAAVGVDPAIMGIGPAVAIPAAVKAAGLELDDIDLFEINEAFASQFVYCRNKLGLDPEKINVNGGAMAIGHPLGATGARCVATLLHEMKRRGKDCRFGVVSMCIGTGMGAAAVFERGDGVDELRNARKVEAQGLLSKDAR” here?
Its value is “soluble”.

For “MAHHHHHHVDDDDKMSLLDAHIPQLIASHTAFAAKAGLMRHTIGQAEQQAMSAQAFHQGESAAAFQGAHARFVAAAAKVNTLLDIAQANLGEAAGTYVAADAAAASSYTGF”, which “soluble on expression in E. coli” value is on record?
Its value is “soluble”.

For “MAHHHHHHVGTGSNDDDDKAGLVEGQNYTVLANPIPQQQAGKVEVLEFFGYFCPHCAHLEPVLSKHAKSFKDDMYLRTEHVVWQKEMLTLARLAAAVDMAAADSKDVANSHIFDAMVNQKIKLQNPEVLKKWLGEQTAFDGKKVLAAYESPESQARADKMQELTETFQIDGTPTVIVGGKYKVEFADWESGMNTIDLLADKVREEQKAAQ”, which “soluble on expression in E. coli” value is on record?
Its value is “soluble”.

For “MAHKQSTNNETSNGSTTEIIDETDARAQLESGRTTPTLLLRLEHPRNERRVAFHAGIIDNEHLNRKKSKCCCIYKKPLAFGESSSEDDEDCEHCFGHPEKRQRNAKHNHNHGDKPCTEASHPEGPSTSTQAAHISQPPAEPVESKTDPKPPTPGVDFEQTGSSMGHHHHHHSH”, which “soluble on expression in E. coli” value is on record?
The value was “soluble”.

With “MAHRAFIQVIITGTQVFGKAFAEAYRQAASQSVKQGATNASRRGTGKGEYGGITLDESCKILNIEESKGDLNMDKINNRFNYLFEVNDKEKGGSFYLQSKVYRAAERLKWELAQREKNAKAKAGDASTAKPPPNSTNSSGADNSASSNQ” as the sequence, how does the “soluble on expression in E. coli” value read?
The value was “not soluble”.

For “MAHTGENVLKGLPLKAIALAIALSNPVSAQTLEQAVSITLASNPELKSAFNQFKSREYDAEASSGAYLPKIDLDAGIGYEAINPAESSGNRNTDLTRKDATLTLTQLIWDGSATLNDMDRTAAEAEADRYQLLADASNMALEVAKIYLDATKASEILTLSENNLAIHKDIYRDIKKRADSGIGSTADVTQVEARLAKAHSNLVAAQNNLFDIYTQFRRLVGQEPVSLEFPRADQNAIPPTLENALNMAQENHPVIKVAQADVDAARFQYKQSKAPNYPTLSFEAAQSWRNDAGGIEGSSDELSAMLRLRYNLYNGGSDSDRTESAAYQLNRSKDLREKTFRTVEEGLRLSWSALDLTLQQKQFLADHVDSASKTVVSYRKQYQIGQRTLLDLLNTENELFEARKDYLDARYAEQYAKYRVMNASGNLLDALRVDIPQEWTAKVEY”, which “soluble on expression in E. coli” value is on record?
The value was “not soluble”.

For “MAHTRSLQMLKAHSTRSALRQPQKKETGTNGNDPSVAPKNAQADSGKDERRGSQAMGWSCFGGCIKDEIFSVFGIGRKIIGRV”, which “soluble on expression in E. coli” value is on record?
The value was “not soluble”.

With “MAHTTGENLFTMKRVLRNLEADHDALREALADGRRMRDLLPYGDYINRYRNLTRDPMVVAIHKQFHESGLGGLTIDESMFPLSLRFEDDDVTLVFRRPEGFRHGTNEESSQRPLIERRSRIVLFWKYAEPGTDALKRISLQMFDNEGPLEEATMLSEKIPLLTKPESLTTAMFIPTHADEPRFVFGS” as the sequence, how does the “soluble on expression in E. coli” value read?
The value was “not soluble”.

For “MAIDNIKAYVHLSDADIEEIGRRLDQIKAEVTQSLGARDVAYIKRLIRTQRSLEAAGRFALLFAGNKKCWWLGTGLLSTAKILENLEIGHNVLHGQWDWMNDPEIHSTTWEWDIVCPSSQWMHSHNFVHHTYTNVLGMDNDVGYGILRVTRDRKWTPLHAFQPAVNTVLAAMFQWAVGYYDVELGRYLTKRADWNDTKDKFWETTNKAGRQLARDYVFYPALARKAFPQAVKANAVANLVRSVWAYSVIFCGHFPDEAETFTKEQFKNEDHNQWYLRQMLGSANFYGGKLLTIMSGNLNYQIEHHLFPDMPSNRLAEVGEKVRALCDEYDLPYNVDSFPAQLFKVQKTLLKLTLPNKYLVASPDNAPEVRSNRAFSQNPELEHHHHHH”, which “soluble on expression in E. coli” value is on record?
The value was “soluble”.

Which “soluble on expression in E. coli” value does the source give for “MAIFSRTKRVTDPLDDDAKARILSSHSYILDQDSPRLCELVHGFLEDGPEESFYDSDPDLSETSSAEHSGEASVEIVRMAVSFSDSDPYRNLLLAHVLRAVEVYSGFRSRNKTVFRDKVASFLRELGHDAAVCVSKWTSSSKLIAGSYHFIDVVHKPSDNDQKAVRYLVDLDFASEFEIARPTREYTRGLQLLPNVFVGNEENLRTIVRESCDAAKRSMKSRGLSLPPWRRSSYLQHKWFGPYKRKVGSSLGVKPLNSDAVSCRSLGFDDGAVNTRLFIRA” here?
Its value is “soluble”.

For “MAIGGWIKLYRTIQDHWIWENPQYLKWWLDLIFMANHQDRKILFDGELKTVKVGERITSEKKLSERWEVSRNTVRKFLDLLVKDDMIELSRSRQNGTWYKVSNYAEYQNFSEIKKQRTEQRREQQAAHQTEQRTEHKQEPKEPKNLRNNNNNNKGAFIRSIWENNGFGLMSSKTMTDFDYWISDFEKIGASQKEAEQLIVKAIEIAIDANARNYNYINAILKDWEQRGFKSVEEREAARKQKKTTKKQKSNTGHSDYDDLGF”, which “soluble on expression in E. coli” value is on record?
The value was “not soluble”.

Which “soluble on expression in E. coli” value does the source give for “MAIIASTFGTGLSYAGELPFKPVTGGEVGRKQQRMVVVRAEGGGGINPEIRKNEDKVVDSVVVTELSKNITPYCRCWRSGTFPLCDGSHVKHNKANGDNVGPLLLKKQ” here?
The value was “soluble”.

For “MAIKFQYNKTSLQQQEKQLKMRERTLPTIKSKESALRLEVKRTKDEVERLERQLEEEIVGYRSMVSLWNEFKPDLISVEGVKLSAKKVAGVVVPVLDDISYTIKPFSLFNAPSWFAEGIDLLKNLAHTGIEAEFLGLKLEFLEYARKKTTQKVNLFEKVQIPGYKDAIRKIKRYLEDEESLSKSSQKIMRANMEKRNKGEEVMA”, which “soluble on expression in E. coli” value is on record?
The value was “not soluble”.

Which “soluble on expression in E. coli” value does the source give for “MAIRVIGTGFGRTGTDSMREALTILGFGPCHHMSEVMGNEDQKRLWRALAKGAAPDWNQLFAGYASCIDWPSAHYWRDLIEFYPKARVILTYRSPESWWASFEKTILAGISQSTDQESLGLALISRQVFDGRPHDRANAIAVYEANVRAVIATVPPSRLLVHNLGDGWKPLCLHLDVPLEHHHHHH” here?
The value was “not soluble”.

Which “soluble on expression in E. coli” value does the source give for “MAISLQKGQRISLSKEAPGLSKMMCGLGWDVAKRSGGGFFSNFGGGGQNYDLDASVICLDANGKLTAKENIIYFGNLQHLSGAITHTGDNLTGAGDGDDEVIIVDLPRIPAQIVKLVFVVNIYDCIARKQDFSQIENAFVRLVNAANNKELARYNLSGKEYLGMTGMVLAEVYRHNDDWKLAAIGNGVNVNGLGELAGSYS” here?
Its value is “not soluble”.
